The numbers were not newly measured in article PMC2650391, which cites them from elsewhere.

This data set has as its target Histone H3K4me3 peptide (Homo sapiens) (UniProt P68431).

ING2 PHD, sequence (Q9H160 209-264): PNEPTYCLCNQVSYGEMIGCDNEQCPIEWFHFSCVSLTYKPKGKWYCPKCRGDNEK

In the case of ING2 PHD (from UniProt Q9H160), the equilibrium dissociation constant (Kd) was 1500 nM.
